# Source: US12383631 (BRIGHT PEAK THERAPEUTICS, dated 2025)
# T1: IL-18 receptor (IL-18Rα/IL-18Rβ) on cells (HEK-Blue IL18R reporter cells, NK-92, KG-1) (human, UniProt Q13478 19-541; O95256 20-599)
# T1 sequence (looked up) 1: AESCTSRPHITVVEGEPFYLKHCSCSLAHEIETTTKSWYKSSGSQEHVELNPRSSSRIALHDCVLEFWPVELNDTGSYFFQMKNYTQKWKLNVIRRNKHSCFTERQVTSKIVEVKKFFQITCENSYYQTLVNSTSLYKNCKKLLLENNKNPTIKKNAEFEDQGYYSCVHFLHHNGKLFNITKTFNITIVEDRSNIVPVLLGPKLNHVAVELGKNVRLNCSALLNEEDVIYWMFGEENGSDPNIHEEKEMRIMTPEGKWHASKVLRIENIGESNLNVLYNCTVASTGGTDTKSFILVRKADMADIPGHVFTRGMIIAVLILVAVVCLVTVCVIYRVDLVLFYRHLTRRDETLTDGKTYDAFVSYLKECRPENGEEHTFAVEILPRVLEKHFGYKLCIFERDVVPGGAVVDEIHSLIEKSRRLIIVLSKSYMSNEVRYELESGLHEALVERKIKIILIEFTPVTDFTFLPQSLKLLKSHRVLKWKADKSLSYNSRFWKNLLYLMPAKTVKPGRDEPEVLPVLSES
# T1 sequence (looked up) 2: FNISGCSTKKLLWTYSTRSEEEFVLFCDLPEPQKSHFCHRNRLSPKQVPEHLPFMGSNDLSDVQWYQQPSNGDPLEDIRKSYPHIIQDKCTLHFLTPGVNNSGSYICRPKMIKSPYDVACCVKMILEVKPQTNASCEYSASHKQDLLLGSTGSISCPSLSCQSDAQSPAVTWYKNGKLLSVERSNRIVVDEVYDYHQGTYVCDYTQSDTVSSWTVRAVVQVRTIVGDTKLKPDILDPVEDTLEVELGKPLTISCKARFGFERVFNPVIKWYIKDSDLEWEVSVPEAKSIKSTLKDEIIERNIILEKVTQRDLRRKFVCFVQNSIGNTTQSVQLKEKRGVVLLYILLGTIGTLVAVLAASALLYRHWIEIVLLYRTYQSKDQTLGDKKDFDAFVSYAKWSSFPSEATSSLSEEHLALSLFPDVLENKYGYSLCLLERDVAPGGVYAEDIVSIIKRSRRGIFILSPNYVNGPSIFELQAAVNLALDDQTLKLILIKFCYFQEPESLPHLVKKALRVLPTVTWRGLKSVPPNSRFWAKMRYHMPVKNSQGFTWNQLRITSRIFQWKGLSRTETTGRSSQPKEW
# T2: human IL-18BP-His (human, UniProt O95998 31-194, limits assumed)
# T2 construct: also called His-tagged human IL-18BP; not shown: His tag
# T2 sequence (looked up): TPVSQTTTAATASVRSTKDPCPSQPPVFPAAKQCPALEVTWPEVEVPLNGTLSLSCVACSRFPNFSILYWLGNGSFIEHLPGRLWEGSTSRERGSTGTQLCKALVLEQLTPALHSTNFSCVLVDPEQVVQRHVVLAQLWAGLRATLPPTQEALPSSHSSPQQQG
# How the values were obtained:
# [1] = target: T1, IL-18 receptor (IL-18Rα/IL-18Rβ) on …; assay: cell-based or functional assay
# [2] = target: T1, IL-18 receptor (IL-18Rα/IL-18Rβ) on …; assay: cell-based or functional assay; remark: listed apart in the source
# human IL-18BP-His = target: T2, human IL-18BP-His; assay: AlphaLISA of free IL-18BP
# Description: The plate is incubated further for 1 hr at room temperature. Under subdued light, 12.5 µL of 2× streptavidin (SA) donor beads are pipetted into each well, and the wells are incubated with shaking for an additional 30 min at room temperature. The AlphaLisa signal is then measured on an Enspire plate reader with 680 and 615 nm as excitation and emission wavelengths, respectively. The dissociation constant (K_D) is calculated based on a variable slope, four parameter analysis using GraphPad PRISM software.
"EC50, HEK-Blue IL18R reporter cells [1] [nM]","EC50, IFNγ stimulation, NK92 cells [2] [nM]",Kd (human IL-18BP-His) [nM],Binder
0.0007,0.015,1.24,"IL-18 polypeptide C150 (ligand, also called V11I, T34A, C38A, K53A, C76A, C127A) YFGKLESKLSIIRNLNDQVLFIDQGNRPLFEDMADSDARDNAPRTIFIISMYADSQPRGMAVTISVKCEKISTLSAENKIISFKEMNPPDNIKDTKSDIIFFQRSVPGHDNKMQFESSSYEGYFLAAEKERDLFKLILKKEDELGDRSIMFTVQNED"
0.00473,0.098,0.02,"IL-18 polypeptide C166 (ligand, also called V11I, C38A, S55T, C76A, C127A) YFGKLESKLSIIRNLNDQVLFIDQGNRPLFEDMTDSDARDNAPRTIFIISMYKDTQPRGMAVTISVKCEKISTLSAENKIISFKEMNPPDNIKDTKSDIIFFQRSVPGHDNKMQFESSSYEGYFLAAEKERDLFKLILKKEDELGDRSIMFTVQNED"
0.00202,0.028,0.71,"IL-18 polypeptide C160 (ligand, also called V11I, C38A, K53A, C76A, D110A, C127A) YFGKLESKLSIIRNLNDQVLFIDQGNRPLFEDMTDSDARDNAPRTIFIISMYADSQPRGMAVTISVKCEKISTLSAENKIISFKEMNPPDNIKDTKSDIIFFQRSVPGHANKMQFESSSYEGYFLAAEKERDLFKLILKKEDELGDRSIMFTVQNED"
0.00195,0.056,13.7,"IL-18 polypeptide C157 (ligand, also called V11I, C38A, K53A, C76A, C127A, D132A) YFGKLESKLSIIRNLNDQVLFIDQGNRPLFEDMTDSDARDNAPRTIFIISMYADSQPRGMAVTISVKCEKISTLSAENKIISFKEMNPPDNIKDTKSDIIFFQRSVPGHDNKMQFESSSYEGYFLAAEKERALFKLILKKEDELGDRSIMFTVQNED"
0.0023,0.061,0.85,"IL-18 polypeptide C162 (ligand, also called K8E, V11I, C38A, C76A, Q103R, C127A) YFGKLESELSIIRNLNDQVLFIDQGNRPLFEDMTDSDARDNAPRTIFIISMYKDSQPRGMAVTISVKCEKISTLSAENKIISFKEMNPPDNIKDTKSDIIFFRRSVPGHDNKMQFESSSYEGYFLAAEKERDLFKLILKKEDELGDRSIMFTVQNED"
0.00191,0.176,0.15,"IL-18 polypeptide C165 (ligand, also called V11I, C38A, S55R, C76A, C127A) YFGKLESKLSIIRNLNDQVLFIDQGNRPLFEDMTDSDARDNAPRTIFIISMYKDRQPRGMAVTISVKCEKISTLSAENKIISFKEMNPPDNIKDTKSDIIFFQRSVPGHDNKMQFESSSYEGYFLAAEKERDLFKLILKKEDELGDRSIMFTVQNED"
0.00052,0.067,0.74,"IL-18 polypeptide C155 (ligand, also called V11I, C38A, D40A, K53A, C76A, C127A) YFGKLESKLSIIRNLNDQVLFIDQGNRPLFEDMTDSDARANAPRTIFIISMYADSQPRGMAVTISVKCEKISTLSAENKIISFKEMNPPDNIKDTKSDIIFFQRSVPGHDNKMQFESSSYEGYFLAAEKERDLFKLILKKEDELGDRSIMFTVQNED"
0.0117,0.558,18.5,"IL-18 polypeptide C156 (ligand, also called V11I, C38A, N41A, K53A, C76A, C127A) YFGKLESKLSIIRNLNDQVLFIDQGNRPLFEDMTDSDARDAAPRTIFIISMYADSQPRGMAVTISVKCEKISTLSAENKIISFKEMNPPDNIKDTKSDIIFFQRSVPGHDNKMQFESSSYEGYFLAAEKERDLFKLILKKEDELGDRSIMFTVQNED"
0.00201,0.057,0.06,"IL-18 polypeptide C161 (ligand, also called K8R, V11I, C38A, C76A, Q103E, C127A) YFGKLESRLSIIRNLNDQVLFIDQGNRPLFEDMTDSDARDNAPRTIFIISMYKDSQPRGMAVTISVKCEKISTLSAENKIISFKEMNPPDNIKDTKSDIIFFERSVPGHDNKMQFESSSYEGYFLAAEKERDLFKLILKKEDELGDRSIMFTVQNED"
0.0195,0.123,0.55,"IL-18 polypeptide C159 (ligand, also called V11I, C38A, K53A, C76A, H109A, C127A) YFGKLESKLSIIRNLNDQVLFIDQGNRPLFEDMTDSDARDNAPRTIFIISMYADSQPRGMAVTISVKCEKISTLSAENKIISFKEMNPPDNIKDTKSDIIFFQRSVPGADNKMQFESSSYEGYFLAAEKERDLFKLILKKEDELGDRSIMFTVQNED"
0.0156,0.073,1.24,"IL-18 polypeptide C158 (ligand, also called V11I, C38A, K53A, C76A, G108A, C127A) YFGKLESKLSIIRNLNDQVLFIDQGNRPLFEDMTDSDARDNAPRTIFIISMYADSQPRGMAVTISVKCEKISTLSAENKIISFKEMNPPDNIKDTKSDIIFFQRSVPAHDNKMQFESSSYEGYFLAAEKERDLFKLILKKEDELGDRSIMFTVQNED"
0.0119,0.062,2.12,"IL-18 polypeptide C154 (ligand, also called V11I, E31A, D37A, C38A, K53A, C76A, C127A) YFGKLESKLSIIRNLNDQVLFIDQGNRPLFADMTDSAARDNAPRTIFIISMYADSQPRGMAVTISVKCEKISTLSAENKIISFKEMNPPDNIKDTKSDIIFFQRSVPGHDNKMQFESSSYEGYFLAAEKERDLFKLILKKEDELGDRSIMFTVQNED"
0.00025,0.033,1.12,"IL-18 polypeptide C152 (ligand, also called V11I, S36A, C38A, K53A, C76A, C127A) YFGKLESKLSIIRNLNDQVLFIDQGNRPLFEDMTDADARDNAPRTIFIISMYADSQPRGMAVTISVKCEKISTLSAENKIISFKEMNPPDNIKDTKSDIIFFQRSVPGHDNKMQFESSSYEGYFLAAEKERDLFKLILKKEDELGDRSIMFTVQNED"
0.0141,0.175,4.55,"IL-18 polypeptide C153 (ligand, also called V11I, D37A, C38A, K53A, C76A, C127A) YFGKLESKLSIIRNLNDQVLFIDQGNRPLFEDMTDSAARDNAPRTIFIISMYADSQPRGMAVTISVKCEKISTLSAENKIISFKEMNPPDNIKDTKSDIIFFQRSVPGHDNKMQFESSSYEGYFLAAEKERDLFKLILKKEDELGDRSIMFTVQNED"
0.0015,0.093,0.05,"IL-18 polypeptide C163 (ligand, also called V11I, C38A, C76A, Q103K, C127A) YFGKLESKLSIIRNLNDQVLFIDQGNRPLFEDMTDSDARDNAPRTIFIISMYKDSQPRGMAVTISVKCEKISTLSAENKIISFKEMNPPDNIKDTKSDIIFFKRSVPGHDNKMQFESSSYEGYFLAAEKERDLFKLILKKEDELGDRSIMFTVQNED"
0.00314,0.414,0.08,"IL-18 polypeptide C164 (ligand, also called V11I, C38A, S55H, C76A, C127A) YFGKLESKLSIIRNLNDQVLFIDQGNRPLFEDMTDSDARDNAPRTIFIISMYKDHQPRGMAVTISVKCEKISTLSAENKIISFKEMNPPDNIKDTKSDIIFFQRSVPGHDNKMQFESSSYEGYFLAAEKERDLFKLILKKEDELGDRSIMFTVQNED"
0.0131,0.061,2.88,"IL-18 polypeptide C151 (ligand, also called V11I, D35A, C38A, K53A, C76A, C127A) YFGKLESKLSIIRNLNDQVLFIDQGNRPLFEDMTASDARDNAPRTIFIISMYADSQPRGMAVTISVKCEKISTLSAENKIISFKEMNPPDNIKDTKSDIIFFQRSVPGHDNKMQFESSSYEGYFLAAEKERDLFKLILKKEDELGDRSIMFTVQNED"
0.00537,0.103,0.04,"IL-18 polypeptide C167 (ligand, also called V11I, C38A, C76A, S105I, C127A) YFGKLESKLSIIRNLNDQVLFIDQGNRPLFEDMTDSDARDNAPRTIFIISMYKDSQPRGMAVTISVKCEKISTLSAENKIISFKEMNPPDNIKDTKSDIIFFQRIVPGHDNKMQFESSSYEGYFLAAEKERDLFKLILKKEDELGDRSIMFTVQNED"
